Test results reported in article PMC4335029.

Target: T1, VexR-MBP (Vibrio cholerae O1 El Tor N16961) (UniProt Q9KVI0)
T1 sequence: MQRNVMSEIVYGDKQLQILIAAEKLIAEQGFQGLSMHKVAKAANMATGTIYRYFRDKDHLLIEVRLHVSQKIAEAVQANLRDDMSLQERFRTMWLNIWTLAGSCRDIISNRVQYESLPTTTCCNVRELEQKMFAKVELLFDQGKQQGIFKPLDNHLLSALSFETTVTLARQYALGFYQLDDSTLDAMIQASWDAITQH
Assay: EMSA

Sequence	binding
GCGGGAGTCGGCAGCGATAATAATCCGCTCACCGAGGATTACCAACAAAGAAACTGCCTTTACAAAAATTTACTGCACAAGTGTATTGCAAAACAGGGGCGCTGCCGACTCCCGC (double strand) [vexR1]	no binding
GCGGGAGTCGGCAGCGGCCGTACACTATTTCAGACATCACATTTCTCTGCAAATGAACGGTTGTTCATTATAGCGGCTAATACCCCCTGTTTTGCACGCTGCCGACTCCCGC (double strand) [vexR2]	binds
